In publication PMC6168492:

Columns and labels:
[1] = target: HSA-mLoopI + II (HSA T83N/M87L/N111S/R114P) with C-terminal GST (human); assay: SPR; Biacore T200; albumin variants amine-coupled on CM5 (~200 or 500 RU); monomeric His-tagged hFcRn or mFcRn injected in serial dilutions; phosphate buffer (177 mM phosphate, 85 mM NaCl, 0.05% Tween 20) pH 5.5, 30 µl/min, 25 °C; 1:1 Langmuir model
[2] = target: DIII of HSA (residues 381-585) with C-terminal GST (human); assay: as above
[3] = target: MSA-hDI (MSA with human DI, residues 1-190 from HSA) with C-terminal GST (human | mouse); assay: as above
[4] = target: HSA N111S with C-terminal GST (human); assay: as above
[5] = target: HSA R114P with C-terminal GST (human); assay: as above
[6] = target: MSA P573K with C-terminal GST (mouse); assay: as above
[7] = target: HSA-mDI (HSA with mouse DI, residues 1-190 from MSA) with C-terminal GST (mouse | human); assay: as above
[8] = target: MSA-hLoopI + II (MSA N83T/L87M/S111N/P114R) with C-terminal GST (mouse); assay: as above
[9] = target: DIII of MSA (residues 381-584) with C-terminal GST (mouse); assay: as above
[10] = target: HSA K573P with C-terminal GST (human); assay: as above
[11] = target: wild-type mouse serum albumin with C-terminal GST (mouse); assay: SPR; albumin immobilised (200 RU) on CM5 chip by amine coupling, serial dilutions of monomeric His-tagged FcRn injected; pH 5.5, 0.005% Tween20, 30 µl/min, 25 °C; 1:1 Langmuir model
Sequence of wild-type mouse serum albumin with C-terminal GST (mouse) (P07724 25-608): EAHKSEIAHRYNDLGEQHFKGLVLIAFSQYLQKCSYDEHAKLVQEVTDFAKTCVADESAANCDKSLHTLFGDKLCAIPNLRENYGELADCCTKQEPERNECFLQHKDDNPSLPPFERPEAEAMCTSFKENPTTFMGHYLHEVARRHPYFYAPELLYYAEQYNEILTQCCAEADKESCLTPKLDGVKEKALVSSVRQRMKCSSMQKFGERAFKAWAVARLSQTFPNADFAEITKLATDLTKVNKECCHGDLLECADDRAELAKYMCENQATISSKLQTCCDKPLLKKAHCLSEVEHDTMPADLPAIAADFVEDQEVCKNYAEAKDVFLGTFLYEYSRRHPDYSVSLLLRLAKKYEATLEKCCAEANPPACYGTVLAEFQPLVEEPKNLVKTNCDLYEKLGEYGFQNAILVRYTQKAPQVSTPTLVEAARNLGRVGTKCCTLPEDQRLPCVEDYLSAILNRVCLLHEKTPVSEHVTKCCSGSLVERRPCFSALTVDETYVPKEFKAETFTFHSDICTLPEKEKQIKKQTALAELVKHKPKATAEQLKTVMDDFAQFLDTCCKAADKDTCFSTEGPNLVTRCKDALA

Substance	Kd [3]	koff [3]	kon [3]	Kd [8]	koff [8]	kon [8]	Kd [9]	koff [9]	kon [9]	Kd [10]	koff [10]	kon [10]	other results
soluble monomeric His-tagged human neonatal Fc receptor (hFcRn) (from UniProt P55899 24-297; P61769 21-119)	70.2 nM	0.0047 s⁻¹	67000 M⁻¹ s⁻¹	145 nM	0.0074 s⁻¹	51000 M⁻¹ s⁻¹	119 nM	0.0057 s⁻¹	48000 M⁻¹ s⁻¹	22.2 nM	0.0006 s⁻¹	27000 M⁻¹ s⁻¹	Kd [1]: 823 nM; koff [1]: 0.0214 s⁻¹; kon [1]: 26000 M⁻¹ s⁻¹; Kd [2]: 3170 nM; koff [2]: 0.0349 s⁻¹; kon [2]: 11000 M⁻¹ s⁻¹; Kd [4]: 162 nM; koff [4]: 0.006 s⁻¹; kon [4]: 37000 M⁻¹ s⁻¹; Kd [5]: 554 nM; koff [5]: 0.0122 s⁻¹; kon [5]: 22000 M⁻¹ s⁻¹; Kd [6]: 3670 nM; koff [6]: 0.0734 s⁻¹; kon [6]: 20000 M⁻¹ s⁻¹; Kd [7]: 1440 nM; koff [7]: 0.0202 s⁻¹; kon [7]: 14000 M⁻¹ s⁻¹
soluble monomeric His-tagged mouse neonatal Fc receptor (mFcRn) (from UniProt Q61559 22-297; P01887 21-119)	705 nM	0.0148 s⁻¹	21000 M⁻¹ s⁻¹	375 nM	0.0075 s⁻¹	20000 M⁻¹ s⁻¹	620 nM	0.0093 s⁻¹	15000 M⁻¹ s⁻¹	1230 nM	0.0197 s⁻¹	16000 M⁻¹ s⁻¹	
soluble mouse neonatal Fc receptor (mFcRn), His-tagged, monomeric (from UniProt Q61559 22-365; P01887 21-119)													Kd [11]: 324 nM; koff [11]: 0.0123 s⁻¹; kon [11]: 38000 M⁻¹ s⁻¹
